Assay: soluble on expression in E. coli; label from the status in PepcDB or PDB records
For “MKHLKLIVVILATLALGCLIKSPASVKFEIDRTTIPPSGVFHLIVTLNNTGKVGIVDAKLVVEGEEFFIVQSPKLEHPIKVGDSAKLIWTIKGPKIPGNYHFKAYLDIVDELNRVWRGITYETTIKVSSEELKDSVNLNLTVPSKVQGGKIIIVSGEIVNNLTVPVNIVSAEVSAEDLEVIDKEVPNKIDANSKGKVVFKFKVPPRYEKVRMYVIIEYASLQVSGKLIGEKDILIVWKPWELSPEDVKDIYGNLSEWIFYNDIVDGYWEWMYGSKSKIENRTMFRESVEDLLSVANSDVEAAKAVYNHIVTNYVIEKRRIKTLDPQKIMESSSISPTEAEILMVAYLRSLNIPARIVSVYSETDCTYSPFVEAYLSGKWYVIDFNHMFFGTREEFIATRWYPKIYQEITVFGKSLVALKPSPSGHAHEDLTKEYLSITEKALFNHLSKSLDPSTFSQVRIMLNSMNNEDERIFAMFLFTSAKPEEAKQLLEKVHVNELKKTIDAFYKFYRDIPWEEDFRIYWEKLINLYRLEHHHHHH”, the “soluble on expression in E. coli” value was “not soluble”.
With “MMIEGLEKMLAKGVDNALLRFGLGKGYLDAGDAERAAEHLQRCVEQDPKYSAGWKLLGKARQAAGDLAGARQAWEQGLATAATHGDKQAEKEMTVFLRKLDRART” the “soluble on expression in E. coli” value was “not soluble”.
With “GVVGSDARSRGRVPGYASSSLYRESGIISARQLALLQRMLPRLRLEQLFRCEWLQQRLARGLALGREEVRQILLCAAQDDDGWCAELGDRVNLAVPQSMIDWVLLPVYGWWESLLDQAIPGWRLSLVELETQSRQLRIKSEFWSRVAELEPEQAREELARVAKCQARTQEQVAELAGKLETASALAKSAWPNWQRGMATLLASGGLAGFEPIPEVLECLWQPLCRLDDDVGAADAVQAWLHERNLCQAQDHFYWQS” the “soluble on expression in E. coli” value was “soluble”.
For “MGSDKIHHHHHHMSWRYALKNYVTSPETVNDDTVTYFDDKVSIIRDSFPKSECHLLILPRTMQLSRSHPTKVIDAKFKNEFESYVNSAIDHIFRHFQEKFRIKKSDDDKDPCWDDILKDKNKFVRNFVQVGIHSVPSMANLHIHVISKDFHSVRLKNKKHYNSFNTGFFISWDDLPLNGKNLGTDKEIETTYLKEHDLLCCYCQRNFSNKFSLLKKHLELEFNSHFELK”, the “soluble on expression in E. coli” value was “not soluble”.
With “MANKHHVYWYRHHIVNIIMIVDSKTSDWILIDTGLFYSEAFILKKIRRVLGELIPPKAIILTHGHFDHVGALRPLLQRFPNVPVYAHELELPFLTGQRHYVKPDPSVPGGLMAKLAWLYPYHAYDFSRIICPLPDDGTLPFFTDWRWIHTPGHTEGHVSLFRPSDRFLIAGDAFTTVKQESLLSVLAQKKEIHGPPAYFTPDWELAKTSVETLQKLEPAFAVTGHGQMMEGSSLHSGLKRLISQFEQVAVPDLEHHHHHH” the “soluble on expression in E. coli” value was “soluble”.
With “MKRVLVLGATGRTGNFVIKELSKYKSIQLIAGLRSQKDKERLPKINAAIETVVIDIADVCSLRKALTDSDIVVQAIRLRGDISENALIQLDQRIHQAFNPSRKTHLVTVGGAGALKLEANQRFWENEYFPRQTLPRGIAHARLRDYLEKSFFNHTWTYLIPPPVYVAEGARTGSYNRYSSAQKEDFFLSKSISYADFALAIGNAVMEEWQGVYLIAEKELEHHHHHH” the “soluble on expression in E. coli” value was “not soluble”.
With “MEAVKTFNSELYSLNDYKPPISKAKMTQITKAAIKAIKFYKHVVQSVEKFIQKCKPEYKVPGLYVIDSIVRQSRHQFGQEKDVFAPRFSNNIISTFQNLYRCPGDDKSKIVRVLNLWQKNNVFKSEIIQPLLDMAAALEHHHHHH” the “soluble on expression in E. coli” value was “soluble”.
In the case of “MTASSQAPLKYLQAYPQALQDQVHQLIAQDRLADYLQQRYPAGHQIQSDKALYAYALALKQDHLRNAPAIKKVLFDNRLDLTHRALGLHTKISRVQGGKLKASNEIRVAALFKEAPAEFLKMIVVHELAHFRESDHNKAFYQLCEHMLPGYHQLEFDLRVYLTYNELRASSGKFLEHHHHHH”, the “soluble on expression in E. coli” value is reported as “soluble”.
In the case of “MQEIEQRIYLAATYDTKGEEAEYLRQLLRRDGVMVVTVDVATSGQGSPAMVSAQEVAACYPQGAQAVFTGERGSAIVAMALAFERYLAGQRDVGAVLGIGGSGGTALVTPAMRALPVGVPKLMVSTMASGNVAPYVGPSDIAMMYSVTDVAGLNRISRRVLANAAGAIAGAFRQARQPIADDGRPAVGITMFGVTTPCVQHVTAALHDRYDCLVFHATGTGGQSMEKLADSGLLAGVLDLTTTEVCDFLFGGVLACTDDRFGAIARSGVPYVGSCGALDMVNFGALDTVPAACRERLLYPHNPQVTLMRTTAQENARQGAWIAERLNRCEGQVRFLIPEGGVSALDAPGQAFYDEAADAALFQALYDHVRQTDRRRLVRVPCHINDPLFARAAVEQFHEISQ”, the “soluble on expression in E. coli” value is reported as “not soluble”.
For “CDQFVTDALKTFENTYLNDHLPHDIHKNVMRMVNHEVSSFGVVTSAEDSYLGAVDENTLEQATWSFLKDLKRITDSDLKGELFIKELLWMLRHQKDIFNNLARQFQKEVLCPNKCGVMSQTLIWCLKCEKQLHICRKSLDCGERHIEVHRSEDLVLDCLLS”, the “soluble on expression in E. coli” value was “not soluble”.
For “MGSDKIHHHHHHMARNAKLDRLLTLVKALGESAEGLTLDEMAEVIGANRRTAERLRDLILVHFDLEEGVDDRHKRFRIPGTLPSPFIQPNVAEIAALKSLADTAHKAGSAQAPLLESLVGKVQAGLRREVKSRMAPDLEPLVRLQRHHVPAGPMIEHAPETVAQVQGAMMAGMCLEFDYLADGAAEPKWRRVIPVGLIHGPATYLIGKIPGRDLEPAPYRLDRIIAARVSNQPGAAGEDWDLDQWMSASFGIWREEGYEIVLRVAHESAERARKWRFHPQQMIEQDGEELIVRFHSGGLREIAEHLFTWGGEVRIEGPEELREMMRERLSAAGRAVV”, the “soluble on expression in E. coli” value was “not soluble”.
With “MNNTDPTSFESILAGVAKLRKEKSGADTTGSQSLEIDASKLQQQEPQTSRRINSNQVINAFNQQKPEEWTDSKATDDYNRKRPFRSTRPGKTVLVNTTQKENPLLNHLKSTNWRYVSSTGINMIYYDYLVRGRSVLFLTLTYHKLYVDYISRRMQPLSRNENNILIFIVDDNNSEDTLNDITKLCMFNGFTLLLAFNFEQAAKYIEYLNL” the “soluble on expression in E. coli” value was “soluble”.
For “MWPTHDLPILSNKSLILRKLQIEDTPRLVELAQDPAMRNFTTIPSPFTVENALEFISSSSVPTDSLVRWAIATADKPSIYLGTIELRAQSPICVDIGYSLHPHARGLGIMPKAVRLVSNYALSVGFHRVEIKIRTSNVASRRATERARATFEGIAHKAELHRGSIYDLAIYSITS”, the “soluble on expression in E. coli” value was “not soluble”.
For “MSLTPATETVSPISQWYDMMTRMFPDQRLTFLNYGYLAQDSDFDWINDADLEQKCSVNLIRTLLGDSDLRGKKVLEIGSGRGGNCSYLARYTGAASVTGLDFCPAHIELCNRVHALPGLSFVGGDAMALPFADNEFDVVINIESSHCYPDLNTFGAEVQRVLKQDGRFFYADTMKGDNTSALSEPDSIGVDFFSNVLAQHQAMIEHARFKVEEHRDISDGVIRAFESQDGHLKHLLRSLVEEKKQQREPLPPEVWHAFDTMFHFFDDSGIKAYKNGHLAYKFWRLQKAAEGHHHHHH”, the “soluble on expression in E. coli” value was “not soluble”.
For “MIEYAALKFNVVSDPMSETAKKVIVGMSGGVDSSVSAWLLQQQGYQVEGLFMKNWEEDDGEEYCTAAADLADAQAVCDKLGIELHTVNFAAEYWDNVFELFLAEYKAGRTPNPDILCNKEIKFKAFLEFAAEDLGADYIATGHYVRRADVDGKSRLLRGLDSNKDQSYFLYTLSHEQIAQSLFPVGELEKPQVRKIAEDLGLVTAKKKDSTGICFIGERKFREFLGRYLPAQPGKIITVDGDEIGEHQGLMYHTLGQRKGLGIGGTKEGTEEPWYVVDKDVENNILVVAQGHEHPRLMSVGLIAQQLHWVDREPFTGTMRCTVKTRYRQTDIPCTVKALDDDRIKVIFDEPVAAVTPGQSAVFYNGEVCLGGGIIEQRLPLPVLEHHHHHH”, the “soluble on expression in E. coli” value was “soluble”.
For “MRKGCFGLVSLVLLLLVGCRSHPEIPVNDEQSLVMESSLLAAGISAEKPFLSTSDIQPSASSTLYNERQEPVTVHYRFYWYDARGLEMHPLERPRSVTIPAHSAVTLYGSANFLGAHKVRLYLYLLEHHHHHH”, the “soluble on expression in E. coli” value was “soluble”.
For “PVFILGHWRSGTTFVHNVFSCDSHFGYNTTYQTVFPHLMMWGQPFFKKNMSWLMPDKRPTDNMELAVDLPQEEEFALANMMPYTYYNFWFLPRYQQEYADKYLLFDTISEAELKVFEETFTKLIKISLWNTQGTQFLSKNPPHTGRVKELVKMFPNAKFIYLMRNPYTVFESTRSFFTNTIQPLKLQDITPAELENNILSIYAKLYHKYEADKQFIPEGNLMEVKFEDFEADAMGMTENIYHALDIPGFAEARGSIEKYVGGKKGYKKNKYKYDDRTVQLVQDHWDFALKQWDYSL”, the “soluble on expression in E. coli” value was “not soluble”.
With “MKDLKKIESYLDKLRIKEKDGEERKIYAEVLDGRTLKTLYKLSAKGYITAMGGVISTGKEANVFYADGVFDGKPVAMAVKIYRIETSEFDKMDEYLYGDERFDMRRISPKEKVFIWTEKEFRNLERAKEAGVSVPQPYTYMKNVLLMEFIGEDELPAPTLVELGRELKELDVEGIFNDVVENVKRLYQEAELVHADLSEYNIMYIDKVYFIDMGQAVTLRHPMAESYLERDVRNIIRFFSKYGVKADFEEMLKEVKGE” the “soluble on expression in E. coli” value was “soluble”.
For “MAAGIVASRRLRDLLTRRLTGSNYPGLSISLRLTGSSAQEEASGVALGEAPDHSYESLRVTSAQKHVLHVQLNRPNKRNAMNKVFWREMVECFNKISRDADCRAVVISGAGKMFTAGIDLMDMASDILQPKGDDVARISWYLRDIITRYQETFNVIERCPKPVIAAVHGGCIGGGVDLVTACDIRYCAQDAFFQVKEVDVGLAADVGTLQRLPKVIGNQSLVNELAFTARKMMADEALGSGLVSRVFPDKEVMLDAALALAAEISSKSPVAVQSTKVNLLYSRDHSVAESLNYVASWNMSMLQTQDLVKSVQATTENKELKTVTFSKL”, the “soluble on expression in E. coli” value was “soluble”.
For “MNKETLQLFRTLTELQGASGFEHDVRRFMKQELSKYADEIVQDGLGSVFGLKKGDETGPRVLVAGHMDEVGFMVTQITKNGMLRFQTLGGWWSQVLLAQRVQVMTKNGPVIGVVGSIPPHLLSDAQRAKPMDIKNMLIDIGADSYEDAIEIGVKPGQQIVPICPFTPMANEKKIMAKAWDNRYGCGLAIELLKELKDETLPNTLYSGATVQEEVGLRGAQTAANMIQPDIFYALDASPANDASGDKTQFGQLGKGALLRIYDRTMVTHRGIREFILDTAETNNIPYQYFISQGGTDAGRVHTSNSGIPSAVIGVCARYVHTHASILHVDDYAAAKELITKLVRTTDKTTLETIKNNA”, the “soluble on expression in E. coli” value was “not soluble”.
In the case of “MGSDKIHHHHHHMLGMPTVLGVVLRMGRELWWCSLRPVSMLKEYAYCPRVAYYMEVLRPSYRPTEPMNLSREIYSVDHVRGILRSSGFRIVKEEWAVPLRSKRLGLQGVADGVVVEGSLGIIVVEAKLSVRSNRWLHTRGRHVIFQAAAYALALEETRGYSVDYLAIVSLEDSKTYVVKMSPSLRRDVIRLADDMNKTLDDGLEPPPKPGRKCVACRFRRVCQPWVAERGSER”, the “soluble on expression in E. coli” value is reported as “not soluble”.
With “GSPGILMASQGTKRSYEQMETGGERQNATEIRASVGRMVGGIGRFYIQMCTELKLSDQEGRLIQNSITIERMVLSAFDERRNRYLEEHPSAGKDPKKTGGPIYRRRDGKWVRELILYDKEEIRRIWRQANNGEDATAGLTHMMIWHSNLNDATYQRTRALVRTGMDPRMCSLMQGSTLPRRSGAAGAAIKGVGTMVMELIRMIKRGINDRNFWRGENGRRTRIAYERMCNILKGKFQTAAQKAMMDQVRESRNPGNAEIEDLIFLARSALILRGSIAHKSCLPACVYGLAVASGYDFEREGYSLVGIDPFRLLQNSQVFSLIRPNENPAHKSQLVWMACHSAAFEDLRVSSFIRGTRVIPRGQLSTRGVQIASNENVEAMDSSTLELRSRYWAIRTRSGGNTNQQRASAGQISVQPTFSVQRNLPFERATIMAAFKGNTEGRTSDMRTEIIRMMESARPEDVSFQGRGVFELSDEKATNPIVPSFDMSNEGSYFFGDNAEEYDN” the “soluble on expression in E. coli” value was “soluble”.

Source: the DeepSol protein solubility set
